Results reported in US20090130105A1 (Biogen, published 2009).
Numbering of substitutions follows the chain as printed. Numbers in names are those of the source.

B1: M14-C03 antibody (antibody, V domains shown)
VH: EVQLLESGGGLVQPGGSLRLSCAASGFTFSKYMMSWVRQAPGKGLEWVSYISPSGGLTWYADSVKGRFTISRDNSKNTLYLQMNSLRAEDTAVYYCARDGARGYGMDVWGQGTTVTVSS
VL: DIQMTQSPATLSLSPGERATLSCRASQSVSSYLAWYQQKPGQAPRLLIYDASNRATGIPARFSGSGSGTDFTLTISSLEPEDFAVYYCQQRSNWPPEVTFGPGTKVDIK
notes: Fully human full-length antibody (ATCC PTA-7445); also called M14.C03.G4.P.agly
B2: conventional C06 (VL/GS3/VH) scFv (pXWU092) (scFv)
scFv: DIQMTQSPLSLSASVGDRVTITCQASRDIRNYLNWYQQKPGKAPKLLIYDASSLQTGVPSRFGGSGSGTDFSFTIGSLQPEDIATYYCQQFDSLPHTFGQGTKLEIKGGGGSGGGGSGGGGSEVQLLESGGGLVQPGGSLRLSCAASGFTFSIYRMQWVRQAPGKGLEWVSGISPSGGTTWYADSVKGRFTISRDNSKNTLYLQMNSLRAEDTAVYYCARWSGGSGYAFDIWGQGTMVTVSS
notes: also called WT C06 scFv
B3: MJF045, stabilized C06 (I83E) scFv (scFv)
scFv: B2 scFv with I83E
notes: Variant of pXWU092 with VL I83E (Kabat); also called C06 VL I83E scFv
B4: MJF018, C06 (VL/GS3/VH) scFv with VL V15N (scFv)
scFv: DIQMTQSPLSLSASNGDRVTITCQASRDIRNYLNWYQQKPGKAPKLLIYDASSLQTGVPSRFGGSGSGTDFSFTIGSLQPEDIATYYCQQFDSLPHTFGQGTKLEIKGGGGSGGGGSGGGGSEVQLLESGGGLVQPGGSLRLSCAASGFTFSIYRMQWVRQAPGKGLEWVSGISPSGGTTWYADSVKGRFTISRDNSKNTLYLQMNSLRAEDTAVYYCARWSGGSGYAFDIWGQGTMVTVSSDDDKSFLEQKLISEEDLNSAVDHHHHHH
notes: Kabat positions
B5: MJF014, C06 (VL/GS3/VH) scFv with VL M4L (scFv)
scFv: B4 scFv with M4L, N15V
notes: Kabat positions
B6: MJF015, C06 (VL/GS3/VH) scFv with VH W47F (scFv, name in Kabat numbering)
scFv: B4 scFv with N15V, W169F
notes: Kabat positions
B7: MJF016, C06 (VL/GS3/VH) scFv with VL D70E (scFv)
scFv: B4 scFv with N15V, D70E
notes: Kabat positions
B8: MJF017, C06 (VL/GS3/VH) scFv with VL T74S (scFv)
scFv: B4 scFv with N15V, T74S
notes: Kabat positions
B9: MJF020, C06 (VL/GS3/VH) scFv with VL V15E (scFv)
scFv: B4 scFv with N15E
notes: Kabat positions
B10: MJF021, C06 (VL/GS3/VH) scFv with VL V15I (scFv)
scFv: B4 scFv with N15I
notes: Kabat positions
B11: MJF022, C06 (VL/GS3/VH) scFv with VL V15R (scFv)
scFv: B4 scFv with N15R
notes: Kabat positions
B12: MJF023, C06 (VL/GS3/VH) scFv with VL L11G, V15N (scFv)
scFv: B4 scFv with L11G
notes: Kabat positions
B13: MJF024, C06 (VL/GS3/VH) scFv with VL V15A (scFv)
scFv: B4 scFv with N15A
notes: Kabat positions
B14: MJF025, C06 (VL/GS3/VH) scFv with VL V15P (scFv)
scFv: B4 scFv with N15P
notes: Kabat positions
B15: MJF026, C06 (VL/GS3/VH) scFv with VL V15S; VH T110V (scFv, name in Kabat numbering)
scFv: B4 scFv with N15S, T239V
notes: Kabat positions
B16: MJF027, C06 (VL/GS3/VH) scFv with VL Q24K (scFv)
scFv: B4 scFv with N15V, Q24K
notes: Kabat positions
B17: MJF029, C06 (VL/GS3/VH) scFv with VL T20R, R30Y (scFv)
scFv: B4 scFv with N15V, T20R, R30Y
notes: Kabat positions
B18: MJF031, C06 (VL/GS3/VH) scFv with VL R30N (scFv)
scFv: B4 scFv with N15V, R30N
notes: Kabat positions
B19: MJF033, C06 (VL/GS3/VH) scFv with VL T20R, R30N; VH S21E (scFv, name in Kabat numbering)
scFv: B4 scFv with N15V, T20R, R30N, S143E
notes: Kabat positions
B20: MJF034, C06 (VL/GS3/VH) scFv with VL A51G (scFv)
scFv: B4 scFv with N15V, A51G
notes: Kabat positions
B21: MJF035, C06 (VL/GS3/VH) scFv with VL S72N (scFv)
scFv: B4 scFv with N15V, S72N
notes: Kabat positions
B22: MJF037, C06 (VL/GS3/VH) scFv with VL S72Y (scFv)
scFv: B4 scFv with N15V, S72Y
notes: Kabat positions
B23: MJF038, C06 (VL/GS3/VH) scFv with VL G63S, S72N (scFv)
scFv: B4 scFv with N15V, G63S, S72N
notes: Kabat positions
B24: MJF039, C06 (VL/GS3/VH) scFv with VL T20R, R30N, G63S, S72N (scFv)
scFv: B4 scFv with N15V, T20R, R30N, G63S, S72N
notes: Kabat positions
B25: MJF040, C06 (VL/GS3/VH) scFv with VL I83M (scFv)
scFv: B4 scFv with N15V, I83M
notes: Kabat positions
B26: MJF042, C06 (VL/GS3/VH) scFv with VL S77G, I83G (scFv)
scFv: B4 scFv with N15V, S77G, I83G
notes: Kabat positions
B27: MJF043, C06 (VL/GS3/VH) scFv with VL I83D (scFv)
scFv: B4 scFv with N15V, I83D
notes: Kabat positions
B28: MJF047, C06 (VL/GS3/VH) scFv with VL I83G (scFv)
scFv: B4 scFv with N15V, I83G
notes: Kabat positions
B29: MJF048, C06 (VL/GS3/VH) scFv with VH R83K (scFv, name in Kabat numbering)
scFv: B4 scFv with N15V, R209K
notes: Kabat positions
B30: MJF049, C06 (VL/GS3/VH) scFv with VH R83T (scFv, name in Kabat numbering)
scFv: B4 scFv with N15V, R209T
notes: Kabat positions
B31: MJF050, C06 (VL/GS3/VH) scFv with VH T110V (scFv, name in Kabat numbering)
scFv: B4 scFv with N15V, T239V
notes: Kabat positions
B32: MJF051, C06 (VL/GS3/VH) scFv with VL S77G, I83Q (scFv)
scFv: B4 scFv with N15V, S77G, I83Q
notes: Kabat positions

biological target: T1, human IGF-1R(1-903)-Fc (human, UniProt P08069 31-933); assay: competition ELISA: antibody diluted in human IGF-2 His solution, added to biotinylated hIGF-1R-Fc on streptavidin plates, bound IGF-2 His detected with anti-His-HRP (blocked ligand: IGF-2 His)
T1 construct: also called hIGF-1R-Fc; SDWT; not shown: human IgG1 Fc, C-terminal tag
Procedure: (§1) hIGF-1R-Fc was biotinylated using EZ-Link Sulfo-NHS-LC-Biotin according to the protocol provided by the manufacturer (Pierce Cat. No. 21335). Biotinylated human IGF-1R Fc (NB12453-9) at 5 μg/ml was added to the wells of SigmaScreen streptavidin-coated 96-well plates (Sigma, Cat. No. M5432-5EA) at 100 μL/well and incubated overnight at 2-8° C. The plates were then washed four times with 200 μL/well PBST. […] The dilutions were added to the plates in duplicate at 100 μL/well and the plates were incubated at RT for 1 hour. The plates were then washed four times with 200 μL/well PBST. An HRP-conjugated anti-Histag antibody (Penta-His HRP Conjugate, QIAGEN, Cat. No. 1014992) was diluted 1:1000 in PBST and added to plates at 100 μL/well, and the plates were incubated at RT for one hour. The plates were then washed four times with 200 μL/well PBST. SureBlue Reserve TMB Microwell Peroxidase Substrate (KPL, Cat. No. 53-00-01) was added to plates at 100 μL/well followed by 1% phosphoric acid at 100 μL/well once the desired reaction was observed. The absorbance of each well was determined at 450 nm, and the results were normalized and plotted against the log of antibody concentration.

T1 sequence (P08069 31-933): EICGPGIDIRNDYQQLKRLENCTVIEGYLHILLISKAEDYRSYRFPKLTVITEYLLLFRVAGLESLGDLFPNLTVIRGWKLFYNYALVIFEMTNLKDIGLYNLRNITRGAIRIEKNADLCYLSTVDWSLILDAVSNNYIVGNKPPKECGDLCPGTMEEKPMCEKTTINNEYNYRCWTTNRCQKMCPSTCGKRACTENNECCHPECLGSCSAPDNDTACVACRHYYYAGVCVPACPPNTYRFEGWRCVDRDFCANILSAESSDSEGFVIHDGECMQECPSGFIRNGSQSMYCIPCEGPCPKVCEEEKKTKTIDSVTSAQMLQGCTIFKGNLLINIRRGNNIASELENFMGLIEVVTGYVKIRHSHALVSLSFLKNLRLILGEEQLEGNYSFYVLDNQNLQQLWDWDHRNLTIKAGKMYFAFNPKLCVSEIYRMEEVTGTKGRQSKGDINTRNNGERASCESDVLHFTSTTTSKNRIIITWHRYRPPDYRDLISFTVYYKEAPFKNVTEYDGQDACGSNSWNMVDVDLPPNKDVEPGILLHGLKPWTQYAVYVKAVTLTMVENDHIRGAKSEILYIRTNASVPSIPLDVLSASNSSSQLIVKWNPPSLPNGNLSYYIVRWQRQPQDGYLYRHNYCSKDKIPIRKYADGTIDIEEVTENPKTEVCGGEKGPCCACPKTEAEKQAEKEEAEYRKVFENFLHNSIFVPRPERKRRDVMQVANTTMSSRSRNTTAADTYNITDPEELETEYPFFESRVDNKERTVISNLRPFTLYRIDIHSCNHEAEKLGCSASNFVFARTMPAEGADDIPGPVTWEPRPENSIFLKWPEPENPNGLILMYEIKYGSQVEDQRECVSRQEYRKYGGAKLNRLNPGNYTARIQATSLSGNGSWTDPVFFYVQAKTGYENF

Row | Binder | IC50 (read off the curve)
1 | B1 | ~1 nM

biological target: T1, human IGF-1R(1-903)-Fc; assay: competition ELISA: antibody diluted in 320 nM human IGF-1 His, added to biotinylated hIGF-1R-Fc on streptavidin plates, bound IGF-1 His detected with anti-His-HRP (blocked ligand: IGF-1 His)
Procedure: as §1

Row | Binder | IC50 (read off the curve)
2 | B1 | ~5 nM

biological target: T2, hIGF-1R-Fc mutant SD103 (D461A, V462T) (human, UniProt P08069 31-933); assay: SPR, immobilized antibody
T2 construct: not shown: human IgG1 Fc, C-terminal tag
Procedure: Surface plasmon resonance (SPR) experiments were performed on a Biacore 3000 instrument set to 25° C. […] The antibody sensorchip surfaces were prepared by injecting each antibody (diluted 100 μg/mL in 10 mM Acetate, pH 4.0) over EDC/NHS-activated sensorchip surfaces according to the standard protocol of the manufacturer. […] Both hIGF-1R-Fc and mIGF-1R-Fc proteins oligomerize due to the incorporation of two separate homodimeric regions (IGF-1R and IgG1-Fc). […] After, completion of the receptor-Fc loading step, flow rates were elevated to 5 μl/min. […] Dissociation was measured for 7 minutes after the antibody injections were complete. Finally, the flow rate was elevated to 30 μL/min and the chip surfaces were regenerated by 2×10 μL injections of 0.1 M glycine, pH 2.

T2 sequence (P08069 31-933 D491A/V492T): as the sequence (P08069 31-933) above, with D461A, V462T counted along it

Row | Binder | binding result
3 | B1 | no binding

biological target: T1, human IGF-1R(1-903)-Fc; assay: biolayer interferometry (Octet), IGF-1R Fc on Protein A sensors, scFv culture supernatant; design: unit not given here
Excerpt: Individual transformed colonies were picked into deep-well 96 well dishes and processed for screening as described above. […] For off-rate analyses IGF-1R Fc was immobilized onto the surface of Protein A biosensors. […] ScFvs were allowed to bind to immobilized IGF-1R Fc for 300-seconds. Off-rate was subsequently assayed for 600 seconds.

Row | Binder | Kd (1/sec), off-rate as tabulated (XWU092 = 1.00)
4 | B2 | 1
5 | B3 | 1.47
6 | B4 | 1.16
7 | B5 | 0.86
8 | B6 | 1.37
9 | B7 | 1.03
10 | B8 | 1.02
11 | B9 | 0.76
12 | B10 | 0.81
13 | B11 | 0.76
14 | B12 | 0.68
15 | B13 | 0.89
16 | B14 | 1.18
17 | B15 | 0.99
18 | B16 | 1.12
19 | B17 | 0.68

Row | Binder | Kd (1/sec), off-rate as tabulated (XWU092 = 1.00)
20 | B18 | 0.59
21 | B19 | 0.78
22 | B20 | 0.81
23 | B21 | 0.54
24 | B22 | 0.76
25 | B23 | 0.76
26 | B24 | 0.56
27 | B25 | 0.76
28 | B26 | 0.55
29 | B27 | 1.12
30 | B28 | 1.44
31 | B29 | 1.37
32 | B30 | 1.41
33 | B31 | 1.68
34 | B32 | 1.1
